{"source": "the supplement of paper PMC10065799", "about": "“High-throughput profiling of sequence recognition by tyrosine kinases and SH2 domains using bacterial peptide display” (eLife, 2023);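 as to SH2 binding enrichment of the phosphorylated peptide, bacterial display: peptide library displayed on the E. coli surface as eCPX fusions, selected cells deep-sequenced, score is each peptide's frequency after selection divided by its frequency in the input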;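 as to phosphorylation enrichment, bacterial display: 11-residue human phosphosite peptides and single-mutation variants displayed on the E. coli surface, counted by deep sequencing, each peptide's frequency after selection divided by its frequency in the unselected input library; frequency after pTyr selection over input frequency; kinase dosed for 20-30% of maximal phosphorylation in three min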"}
{"molecular_target": "EPHB1 (UniProt P54762)", "sequence (P54762 whole entry, looked up)": "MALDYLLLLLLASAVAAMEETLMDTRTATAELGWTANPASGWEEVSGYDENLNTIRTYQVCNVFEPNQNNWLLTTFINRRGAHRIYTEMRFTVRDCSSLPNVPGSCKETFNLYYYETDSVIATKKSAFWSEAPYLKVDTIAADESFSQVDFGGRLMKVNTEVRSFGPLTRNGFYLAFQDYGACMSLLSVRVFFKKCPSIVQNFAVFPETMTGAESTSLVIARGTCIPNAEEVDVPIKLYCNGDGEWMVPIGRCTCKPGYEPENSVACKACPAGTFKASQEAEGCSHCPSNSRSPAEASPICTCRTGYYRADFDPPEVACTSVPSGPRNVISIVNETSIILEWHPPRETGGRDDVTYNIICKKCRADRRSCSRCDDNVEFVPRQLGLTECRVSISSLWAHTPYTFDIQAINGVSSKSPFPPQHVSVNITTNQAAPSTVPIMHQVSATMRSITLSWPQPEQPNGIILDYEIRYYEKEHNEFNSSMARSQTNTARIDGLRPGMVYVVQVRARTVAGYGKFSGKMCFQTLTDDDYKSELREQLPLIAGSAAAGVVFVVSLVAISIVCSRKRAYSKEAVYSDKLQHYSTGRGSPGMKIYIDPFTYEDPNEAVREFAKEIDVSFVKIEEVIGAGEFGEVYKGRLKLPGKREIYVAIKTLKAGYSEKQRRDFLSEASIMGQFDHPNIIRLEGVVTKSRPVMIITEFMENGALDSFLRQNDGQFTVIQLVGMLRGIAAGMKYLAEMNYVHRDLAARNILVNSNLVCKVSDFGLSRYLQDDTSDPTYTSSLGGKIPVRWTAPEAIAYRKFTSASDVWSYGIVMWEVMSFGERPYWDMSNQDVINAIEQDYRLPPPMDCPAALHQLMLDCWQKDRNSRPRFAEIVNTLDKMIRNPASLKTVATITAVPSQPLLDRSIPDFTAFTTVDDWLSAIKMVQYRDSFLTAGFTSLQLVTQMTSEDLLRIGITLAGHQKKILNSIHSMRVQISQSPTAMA", "experiment": "phosphorylation enrichment, bacterial display (enrichment ratio); higher = better substrate or ligand; peptides without Tyr show the background"}
{"sequence": "YTTIHYNYMCN [TP53_Y234_C229Y]", "phosphorylation enrichment": 1.81}
{"sequence": "YTDPYYDYEIE [ZC3H18_Y372_A368T]", "phosphorylation enrichment": 1.39}
{"sequence": "HAKKNYGNSSV [HDX_Y197]", "phosphorylation enrichment": 0.316}
{"sequence": "KTTILHKLKLG [ARF1_Y35_Y35H]", "phosphorylation enrichment": 0.4}
{"sequence": "KFVVVYFRETD [IL17RB_Y447_I451T_YF]", "phosphorylation enrichment": 0.637}
{"sequence": "VHYLVYHHHHH [CACNA1H_Y519_H516Y]", "phosphorylation enrichment": 0.687}
{"sequence": "RSSPVYVGRVV [TGM2_Y219]", "phosphorylation enrichment": 0.59}
{"sequence": "ADARMYGVHPW [PLP1_Y207_L210H]", "phosphorylation enrichment": 0.458}
{"sequence": "HSQEDYFECFQ [ZIM2_Y411]", "phosphorylation enrichment": 2.03}
{"sequence": "WCKPLYFSCAV [MMS22L_Y28_P27L]", "phosphorylation enrichment": 0.737}
{"sequence": "EWQQTYTFDSG [JUP_Y20_YF]", "phosphorylation enrichment": 0.494}
{"sequence": "SQQTYCRVSNM [ABCD1_Y181_Y181C]", "phosphorylation enrichment": 3.76}
{"sequence": "CTHDLYMIMRE [FGFR3_Y724]", "phosphorylation enrichment": 2.05}
{"sequence": "SVTCTYSPALY [TP53_Y126_N131Y]", "phosphorylation enrichment": 0.808}
{"sequence": "STKELYEKFMI", "phosphorylation enrichment": 0.411}
{"sequence": "GRPMDYHVSIT [OTOF_Y254_Q255H]", "phosphorylation enrichment": 0.532}
{"sequence": "MAPQMYEFHLP [NCAPD2_Y6]", "phosphorylation enrichment": 4.23}
{"sequence": "PMFHSYVSLPF [PLXNA2_Y293_K289M]", "phosphorylation enrichment": 1.98}
{"sequence": "TNYCLYLRSLE [MTM1_Y71_R69C]", "phosphorylation enrichment": 1.93}
{"sequence": "SLDLSYFHTSS [EMD_Y181_P183H_YF]", "phosphorylation enrichment": 0.517}
{"sequence": "IGEGTYGVLYK [CDK2_Y15_V18L]", "phosphorylation enrichment": 1.55}
{"sequence": "ARGMEYLASQK [FGFR2_Y616]", "phosphorylation enrichment": 0.376}
{"sequence": "MEIHAYRKLSE [LMNA_Y376_L380S]", "phosphorylation enrichment": 0.379}
{"sequence": "FGHTFYNQAIM [MCCC2_Y196_R193H]", "phosphorylation enrichment": 0.404}
{"sequence": "LLIMEYAKFGS [RET_Y806_V804M_YF]", "phosphorylation enrichment": 1.07}
{"sequence": "ECKEAYHEGEC [PRKN_Y372]", "phosphorylation enrichment": 0.524}
{"sequence": "TSQSQYSSFRE [CCDC170_Y323_F324S]", "phosphorylation enrichment": 0.51}
{"sequence": "TLPAFYMGNFS [GLB1_Y552]", "phosphorylation enrichment": 0.645}
{"sequence": "TLKDVCDDGKF [RPS6KA3_Y483_Y483C_YF]", "phosphorylation enrichment": 0.555}
{"sequence": "RRNVYYYSYLL [PTEN_Y177_Y174N]", "phosphorylation enrichment": 1.74}
{"sequence": "KDYETYQSFQN [CTNND2_Y1157_P1159S]", "phosphorylation enrichment": 7.69}
{"sequence": "AKLVQYYMEHH [PTPN11_Y80_E76K]", "phosphorylation enrichment": 2.46}
{"sequence": "STAPSYGNPSS [CD19_Y378_G373S]", "phosphorylation enrichment": 0.328}
{"molecular_target": "c-Src SH2", "experiment": "SH2 binding enrichment of the phosphorylated peptide, bacterial display (enrichment ratio); higher = better substrate or ligand; peptides without Tyr show the background"}
{"sequence": "YTTIHYNYMCN [TP53_Y234_C229Y]", "SH2 binding enrichment": 6.95}
{"sequence": "YTDPYYDYEIE [ZC3H18_Y372_A368T]", "SH2 binding enrichment": 2.02}
{"sequence": "HAKKNYGNSSV [HDX_Y197]", "SH2 binding enrichment": 0.414}
{"sequence": "KTTILHKLKLG [ARF1_Y35_Y35H]", "SH2 binding enrichment": 1.46}
{"sequence": "KFVVVYFRETD [IL17RB_Y447_I451T_YF]", "SH2 binding enrichment": 1.33}
{"sequence": "VHYLVYHHHHH [CACNA1H_Y519_H516Y]", "SH2 binding enrichment": 1}
{"sequence": "RSSPVYVGRVV [TGM2_Y219]", "SH2 binding enrichment": 0.758}
{"sequence": "ADARMYGVHPW [PLP1_Y207_L210H]", "SH2 binding enrichment": 0.465}
{"sequence": "HSQEDYFECFQ [ZIM2_Y411]", "SH2 binding enrichment": 0.531}
{"sequence": "WCKPLYFSCAV [MMS22L_Y28_P27L]", "SH2 binding enrichment": 1.32}
{"sequence": "EWQQTYTFDSG [JUP_Y20_YF]", "SH2 binding enrichment": 0.677}
{"sequence": "SQQTYCRVSNM [ABCD1_Y181_Y181C]", "SH2 binding enrichment": 1.01}
{"sequence": "CTHDLYMIMRE [FGFR3_Y724]", "SH2 binding enrichment": 0.573}
{"sequence": "SVTCTYSPALY [TP53_Y126_N131Y]", "SH2 binding enrichment": 0.397}
{"sequence": "STKELYEKFMI", "SH2 binding enrichment": 0.615}
{"sequence": "GRPMDYHVSIT [OTOF_Y254_Q255H]", "SH2 binding enrichment": 0.575}
{"sequence": "MAPQMYEFHLP [NCAPD2_Y6]", "SH2 binding enrichment": 0.411}
{"sequence": "PMFHSYVSLPF [PLXNA2_Y293_K289M]", "SH2 binding enrichment": 3.37}
{"sequence": "TNYCLYLRSLE [MTM1_Y71_R69C]", "SH2 binding enrichment": 0.696}
{"sequence": "SLDLSYFHTSS [EMD_Y181_P183H_YF]", "SH2 binding enrichment": 0.599}
{"sequence": "IGEGTYGVLYK [CDK2_Y15_V18L]", "SH2 binding enrichment": 0.381}
{"sequence": "ARGMEYLASQK [FGFR2_Y616]", "SH2 binding enrichment": 0.369}
{"sequence": "MEIHAYRKLSE [LMNA_Y376_L380S]", "SH2 binding enrichment": 0.432}
{"sequence": "FGHTFYNQAIM [MCCC2_Y196_R193H]", "SH2 binding enrichment": 0.735}
{"sequence": "LLIMEYAKFGS [RET_Y806_V804M_YF]", "SH2 binding enrichment": 0.929}
{"sequence": "ECKEAYHEGEC [PRKN_Y372]", "SH2 binding enrichment": 0.646}
{"sequence": "TSQSQYSSFRE [CCDC170_Y323_F324S]", "SH2 binding enrichment": 0.663}
{"sequence": "TLPAFYMGNFS [GLB1_Y552]", "SH2 binding enrichment": 0.624}
{"sequence": "TLKDVCDDGKF [RPS6KA3_Y483_Y483C_YF]", "SH2 binding enrichment": 0.66}
{"sequence": "RRNVYYYSYLL [PTEN_Y177_Y174N]", "SH2 binding enrichment": 0.599}
{"sequence": "KDYETYQSFQN [CTNND2_Y1157_P1159S]", "SH2 binding enrichment": 0.533}
{"sequence": "AKLVQYYMEHH [PTPN11_Y80_E76K]", "SH2 binding enrichment": 0.718}
{"sequence": "STAPSYGNPSS [CD19_Y378_G373S]", "SH2 binding enrichment": 0.458}
